Consider three molecules from PMC6965642, “The novel missense mutation Met48Lys in FKBP22 changes its structure and functions” (Scientific Reports, 2020).

Test [1] deals with type X collagen (Homo sapiens) (UniProt Q03692). The note with it: cited from earlier work.
Test [2] addresses mouse type IV collagen (mouse). Briefly: SPR; BIAcore X; collagens immobilised on CM5 chips by amide coupling, FKBP22 injected; 20 °C; HBS-P (10 mM Hepes pH 7.4, 150 mM NaCl, 0.005% Surfactant P20) with 1 mM CaCl2; flow 10 µL/min; steady-state affinity model for type IV collagen - WT FKBP22, Langmuir-binding model for type X collagen - M48K FKBP22. In general terms: In SPR one partner is held on a chip, and binding of the other changes the refractive index at the surface.

Test [3] deals with T1, human recombinant type X collagen (human, UniProt Q03692 19-680).
T1 construct: type X collagen, human, recombinant; source: 293 cells, purified as described previously
T1 sequence (Q03692 19-680): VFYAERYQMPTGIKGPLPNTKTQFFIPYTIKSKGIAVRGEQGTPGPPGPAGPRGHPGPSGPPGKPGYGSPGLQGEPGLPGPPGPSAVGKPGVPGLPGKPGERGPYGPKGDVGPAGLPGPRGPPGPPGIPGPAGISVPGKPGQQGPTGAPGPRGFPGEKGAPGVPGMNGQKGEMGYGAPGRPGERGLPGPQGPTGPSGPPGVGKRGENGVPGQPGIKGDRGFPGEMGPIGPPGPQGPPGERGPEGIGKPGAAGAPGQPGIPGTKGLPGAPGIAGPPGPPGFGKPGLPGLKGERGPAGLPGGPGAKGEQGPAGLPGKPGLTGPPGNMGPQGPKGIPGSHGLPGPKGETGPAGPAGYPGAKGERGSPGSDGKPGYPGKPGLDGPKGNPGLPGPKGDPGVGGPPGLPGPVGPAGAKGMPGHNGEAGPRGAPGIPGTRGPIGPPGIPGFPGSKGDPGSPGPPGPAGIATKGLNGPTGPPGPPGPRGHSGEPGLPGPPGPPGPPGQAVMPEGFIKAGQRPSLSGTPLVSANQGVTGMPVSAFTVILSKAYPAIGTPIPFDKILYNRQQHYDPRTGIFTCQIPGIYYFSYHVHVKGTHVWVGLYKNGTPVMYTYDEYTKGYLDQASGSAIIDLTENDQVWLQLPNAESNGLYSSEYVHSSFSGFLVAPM
Described as above. Conditions: both partners purified.

The term Kd denotes the concentration at which binding is half-saturated.

type X collagen (Homo sapiens), sequence (Q03692 19-680): as above

As for FKBP22 (from UniProt Q9NWM8), the Kd in test [1] was 43 µM.

B1: recombinant human wild type FKBP22 (FK506 Binding Protein 22 kDa) (enzyme)
chain: LIPEPEVKIEVLQKPFICHRKTKGGDLMLVHYEGYLEKDGSLFHSTHKHNNGQPIWFTLGILEALKGWDQGLKGMCVGEKRKLIIPPALGYGKEGKGKIPPESTLIFNIDLLEIRNGPRSHESFQEMDLNDDWKLSKDEVKAYLKKEFEKHGAVVNESHHDALVEDIFDKEDEDKDGFISAREFTYKHDEL
For B1, the Kd in test [2] stood at 310 µM.

B2: recombinant human M48K FKBP22 (Met48Lys) (enzyme)
chain: LIPEPEVKIEVLQKPFICHRKTKGGDLKLVHYEGYLEKDGSLFHSTHKHNNGQPIWFTLGILEALKGWDQGLKGMCVGEKRKLIIPPALGYGKEGKGKIPPESTLIFNIDLLEIRNGPRSHESFQEMDLNDDWKLSKDEVKAYLKKEFEKHGAVVNESHHDALVEDIFDKEDEDKDGFISAREFTYKHDEL
notes: The mutation was found in a patient with kEDS; PDB 4MSP is the WT structure (parent); also called mutant FKBP22; source: E. coli BL21 (DE3), solubilised with 2 M urea, purified (Co2+-chelating column, enterokinase cleavage, Phenyl column)
On to B2, for which the Kd in test [3] was 5.3 ± 4 µM.
